Assay results published in patent publication US7381803 (PROTEIN DESIGN LABS, dated 2008).
Each block holds one binder with its values, some of them ahead of it.

Key:
[1] = target: 28/32 kDa heterodimeric protein on the surface of malignant B-cells; test: Scatchard analysis, 125I-labelled antibody on Raji cells
[2] = target: T1, human CD3 antigen on the surface of T cells (human, UniProt P07766 23-207); test: Scatchard analysis, 125I-labelled antibody on activated human T cells
T1 construct: whole, on cells; also called human CD3 complex
T1 sequence (P07766 23-207): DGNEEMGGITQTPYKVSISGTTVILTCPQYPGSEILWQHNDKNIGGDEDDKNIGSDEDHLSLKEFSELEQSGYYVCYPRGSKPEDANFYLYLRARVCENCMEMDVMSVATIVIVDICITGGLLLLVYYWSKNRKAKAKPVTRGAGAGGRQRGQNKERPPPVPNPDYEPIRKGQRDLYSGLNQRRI
Experimental: Figure 11A: FIG. 11. (A). Displacement assay to compare the relative affinity of HuM291-Fos and M291 for their antigen. Sub-saturation amounts of murine M291-FITC on human T cells were displaced by increasing amounts of murine M291 or HuM291-Fos. T cells were resuspended in complete media at 2.5 ×10^6/ml. Dilutions of the test (HuM291-Fos) or control (murine M291) antibody were added and incubated at 4° C. for 1 hour. A fixed, subsaturation amount of murine M291-FITC was added, and the cells were incubated at 4° C. for 1 hour, wash d, and resuspended in 1% paraformaldehyde. The cells were then analyzed using flow cytometry. Values expressed in % inhibition of fluorescence intensity compared to no competitive antibody control. (B). Scatchard plot analysis of the binding of ^125I-label d HuM291-Fos to activated human T cells. […] The cells were washed in binding buffer (2% horse serum in PBS containing 0.1% sodium azide) and counted. Nonspecific binding was determined by inhibiting the specific binding with an excess of nonlabeled HuM291-Fos. The apparent K_a and the number of binding sites were calculated from the slope and th X axis intercept, respectively, of the Scatchard plot. […]
The relative affinity of murine M291 and HuM291-Fos F(ab'-zipper)_2 for T cells was evaluated using the displacement assay described above. […]

[3] = target: 28/32 kDa heterodimeric protein on the surface of malignant B-cells; test: whole cell indirect radioimmunoassay on HO-85 and Raji cells

Ka [1]: 2.3e+08 M⁻¹ | sites per cell (sites per cell) [1]: 500000
B1: humanized 1D10-IgG1 (antibody, V domains shown)
VH: QVQLQESGPGLVKPSETLSLTCTVSGFSLTNYGVHWVRQSPGKGLEWIGVKWSGGSTEYNAAFISRLTISKDTSKNQVSLKLNSLTAADTAVYYCARNDRYAMDYWGQGTLVTVSS
VL: DIQMTQSPSSLSASVGDRVTITCRASENIYSYLAWYQQKPGKAPKLLVSNAKTLAEGVPSRFSGSGSGKQFTLTISSLQPEDFATYYCQHHYGNSYPFGQGTKLEIKR

Ka [2]: ~1.1e+09 M⁻¹
B2: HuM291-Fos F(ab'-zipper)2 (antibody, V domains shown)
VH: QVQLVQSGAEVKKPGASVKVSCKASGYTFISYTMHWVRQAPGQGLEWMGYINPRSGYTHYNQKLKDKATLTADKSASTAYMELSSLRSEDTAVYYCARSAYYDYDGFAYWGQGTLVTVSS
VL: DIQMTQSPSSLSASVGDRVTITCSASSSVSYMNWYQQKPGKAPKRLIYDTSKLASGVPSRFSGSGSGTDFTLTISSLQPEDFATYYCQQWSSNPPTFGGGTKVEIKR
notes: Bivalent F(ab'-zipper)2 fragment without Fc; The heavy chain is the Fd-Fos (VH 1-120, CH1 121-218, modified hinge 219-238, Fos leucine zipper 239-279); 125I-labelled in the Scatchard analysis; also called humanized F(ab'-zipper)2 of M291

binding activity relative to tissue culture medium alone [3]: 5 times
B3: mouse 1D10 antibody (parent, IgG1/kappa) (antibody, V domains shown)
VH: QVQLKQSGPGLVQPSQSLSITCTGSGFSLTNYGVHWVRQSPGKGLEWLGVKWSGGSTEYNAAFISRLSISKDNSKSQVFFKMNSLQADDTAMYYCARNDRYAMDYWGQGTSVTVSS
VL: DIQMTQSPASLSASVGETVTITCRASENIYSYLAWYQQKQGKSPQLLVSNAKTLAEGVTSRFSGSGSGKQFSLKINSLQPEDFGNYYCQHHYGNSYPFGGGTKLEIK
